Here are results for 132 substances from the supplement of paper PMC12042874.

± gives the uncertainty stated by the source.

The nature of the data set: amyloid nucleation score (Sup35N fusion, yeast selection) (log enrichment); library NNK3; higher = more nucleation; inactive = no reads after selection. The method in brief: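 Random libraries were run with three technical output replicates. In each, psi-negative yeast expressing Sup35N fused to peptides of 20 random codons were induced 24 hours with 100 μM copper sulfate and grown 7 days at 30°C on medium lacking adenine and uracil, and input and output plasmid inserts were Illumina-sequenced. The nucleation score is the DiMSum log enrichment of output over input reads, centred on the mode score of non-aggregating sequences, and sequences under 100 input reads were excluded.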
On to NTSISGSSM, for which the amyloid nucleation score entry is “inactive”.

NTVNWSFFVMVLSFSSRETV: the amyloid nucleation score entry was “inactive”.

For the substance NTYDAVISIACVSHQSICST, the amyloid nucleation score entry is “inactive”.

As to NVAAISGILYSLLTFFLSGG, the amyloid nucleation score result is “inactive”.

Take NVHMMC: the amyloid nucleation score entry is “inactive”.

Take NVINSMGLSKQIIPSQVQSS: the amyloid nucleation score entry was “inactive”.

NVIRISICRSMRMGLKGCIF came in with an amyloid nucleation score of 0.732 ± 0.19.

As for NVLFRMTRHAYSKLTWLFKR, the amyloid nucleation score result was “inactive”.

In the case of NVNVNAFKMSLELRAR, the amyloid nucleation score entry is “inactive”.

NVRGNNLSRM: the amyloid nucleation score result is “inactive”.

On to NVRWLFLAVSCQL, for which the amyloid nucleation score result is “inactive”.

Consider NVYELIDCGLTYQVYSYGSR, for which the amyloid nucleation score turned out to be 0.611 ± 0.24.

On to NVYLKLTA, for which the amyloid nucleation score result is “inactive”.

For NVYMHAMCRWDVQGTAR, the amyloid nucleation score entry is “inactive”.

Consider NVYTPSIFACWSLCEGFFGI, for which the amyloid nucleation score was found to be 2.2 ± 0.063.

NVYVSSRVYISK showed an amyloid nucleation score of 2.88 ± 0.06.

For the substance NWLDWYYPYLKMVIATGFND, the amyloid nucleation score result is “inactive”.

NWNYLISMRGFTEYGESFWW yielded an amyloid nucleation score of -0.18 ± 0.61.

Regarding NWSSRFMTT, the amyloid nucleation score entry was “inactive”.

For NWVLARIWW, the amyloid nucleation score is 0.755 ± 0.18.

On to NWVQSSMNQ, for which the amyloid nucleation score entry was “inactive”.

As to NWWFPTFVRVFIYEVGLVLK, the amyloid nucleation score entry is “inactive”.

In the case of NWWIRGS, the amyloid nucleation score was -0.185 ± 0.82.

For NWYLALSGLVLSPYRGIRSG, the amyloid nucleation score result is “inactive”.

On to NYAYTVMGGTIYRLWGRVMR, for which the amyloid nucleation score entry is “inactive”.

Consider NYCDIYQGSNIF, for which the amyloid nucleation score entry was “inactive”.

For the substance NYFGLWGCHTCITCYPVTLV, the amyloid nucleation score worked out at 1.29 ± 0.13.

As for NYKLQKHAWMNYSAHQECLF, the amyloid nucleation score result was “inactive”.

Consider NYLNTVPVPGGPMVCMQHRI, for which the amyloid nucleation score entry is “inactive”.

In the case of NYLSASVCRRRDFI, the amyloid nucleation score result was “inactive”.

Substance NYMTVRNGLIISIAPRRLRD registered an amyloid nucleation score of 1.83 ± 0.085.

As to NYNYNRSAHSGCPPGLEGVM, the amyloid nucleation score entry is “inactive”.

As to NYRAPMCCELFNKWVF, the amyloid nucleation score entry was “inactive”.

Substance NYRPRKKVFGLR showed an amyloid nucleation score of -0.005 ± 0.88.

Take NYRRGVRKPSFCL: the amyloid nucleation score result was “inactive”.

For NYSRFGNKKFYHP, the amyloid nucleation score result is “inactive”.

As for NYVLPIVCL, the amyloid nucleation score entry is “inactive”.

Regarding NYVVRGRSQNVRNSEDNWGK, the amyloid nucleation score result is “inactive”.

With PAMVCNPTQATRGKSRMVPL, the amyloid nucleation score entry was “inactive”.

As for PATVNRSWNFGIRFNGARNN, the amyloid nucleation score is -0.404 ± 0.8.

For the substance PCHPRGKRENTMRAWGRSCE, the amyloid nucleation score result is “inactive”.

In the case of PCPLRTTVW, the amyloid nucleation score result is “inactive”.

For the substance PCRICINCCRRCIILLLF, the amyloid nucleation score entry is “inactive”.

On to PCSGDSLLVSNTKNRSL, for which the amyloid nucleation score entry was “inactive”.

In the case of PDSKWVFRNAALMTETCIGR, the amyloid nucleation score entry was “inactive”.

Turning to PEFMTVLDVTMSYWWESCLG, the amyloid nucleation score result is “inactive”.

Turning to PERTPFGSNYIYFVKRTRLL, the amyloid nucleation score result was “inactive”.

With PFHLRVMKIRLRLPVVHLKG, the amyloid nucleation score entry is “inactive”.

With PFNYVVRWESKLQSHYFGLY, the amyloid nucleation score result is “inactive”.

Consider PFRNMLGMNPNSQTLRVMVR, for which the amyloid nucleation score entry was “inactive”.

For PFSRYPVGCLGVSPYRVISS, the amyloid nucleation score entry was “inactive”.

For PFSWCFICKSL, the amyloid nucleation score result is “inactive”.

PGDFISDEAMDSNVYFRLQS displayed an amyloid nucleation score of -0.693 ± 0.8.

PGIIGTSNSFYQCVMWQVFG displayed an amyloid nucleation score of 2.13 ± 0.063.

Regarding PGIPGPQLIYRDTILTLECM, the amyloid nucleation score was 0.03 ± 0.88.

PGIQYPSCRKLVIIYMSCL: the amyloid nucleation score entry is “inactive”.

On to PGRLSYLPHMFKYLLLITYT, for which the amyloid nucleation score result is “inactive”.

On to PGRTSYMKVPYCKWSEWPAK, for which the amyloid nucleation score entry was “inactive”.

Take PGRYFMHLLELV: the amyloid nucleation score result was “inactive”.

In the case of PHTSMDALEMSD, the amyloid nucleation score entry was “inactive”.

Turning to PHTWGGR, the amyloid nucleation score entry is “inactive”.

PIFFMIVYAVATYCKEGSHS: the amyloid nucleation score result was “inactive”.

As for PIVRWVSSLLYVVRWLPRLA, the amyloid nucleation score entry was “inactive”.

Consider PIYMYLFSTHVSNQFVKGAF, for which the amyloid nucleation score came out at 3.08 ± 0.06.

Regarding PKCRMSMA, the amyloid nucleation score entry was “inactive”.

As for PKYALMRFRFYSGLR, the amyloid nucleation score entry is “inactive”.

In the case of PLAGLELCMRRRWVEE, the amyloid nucleation score result is “inactive”.

In the case of PLFNRYVSF, the amyloid nucleation score result is “inactive”.

On to PLGVRQQWEGSQVDPCGLRA, for which the amyloid nucleation score entry is “inactive”.

With PLNNGHLLSMPICKIRLVKA, the amyloid nucleation score entry is “inactive”.

As to PLYVQSG, the amyloid nucleation score result was “inactive”.

Substance PMAELIWDLVLRLKLSNKKR showed an amyloid nucleation score of 1.43 ± 0.074.

For PMHGGTSSQSYNNLLRRSVK, the amyloid nucleation score entry was “inactive”.

As to PNGLKTGGETRGRFYKCYMY, the amyloid nucleation score entry was “inactive”.

Regarding PNGREWIMKYVGDAGYRVLS, the amyloid nucleation score was determined as 0.515 ± 0.36.

Regarding PNKDSLWDPFKQQSRSEK, the amyloid nucleation score is -0.455 ± 0.93.

As for PNWEWIVYKMLGTFVHSWVM, the amyloid nucleation score entry is “inactive”.

PPCMYTMYCEYNVLQSSSKY: the amyloid nucleation score is 1.64 ± 0.082.

The substance PQDRFSE registered an amyloid nucleation score of 1.29 ± 0.14.

Consider PQHLFST, for which the amyloid nucleation score entry is “inactive”.

PRCMYRLVFICGPGFRCSAG gave an amyloid nucleation score of -0.07 ± 0.47.

As for PRDGERFLG, the amyloid nucleation score result is “inactive”.

As for PRKTFVKCNRRLNSW, the amyloid nucleation score result is “inactive”.

Turning to PRLAIKAHGVWVGKSFIGET, the amyloid nucleation score entry was “inactive”.

PRNFFLRVMHY: the amyloid nucleation score result was “inactive”.

In the case of PRSEVTRTLYIFSVWHQMRI, the amyloid nucleation score result is “inactive”.

With PRTSKFVAVAFKV, the amyloid nucleation score result is “inactive”.

As for PRYFSRASSKNSRF, the amyloid nucleation score result is “inactive”.

With PSCFLPFNCPITLVYTCSLF, the amyloid nucleation score worked out at 2.14 ± 0.07.

In the case of PSENKRGFPDLVFAMINSGI, the amyloid nucleation score result was “inactive”.

As to PSFMLVVIKVTYVMADSNMR, the amyloid nucleation score entry is “inactive”.

PSGSVCGPHHIPHVDVSGIS: the amyloid nucleation score entry was “inactive”.

PSHSLSGRCHV: the amyloid nucleation score result was “inactive”.

With PSLRRTSLGSLKSSMANSWQ, the amyloid nucleation score result was “inactive”.

PSNYWNEFYFCSSIHSCGE gave an amyloid nucleation score of 3.28 ± 0.07.

As to PSRNYIVELS, the amyloid nucleation score entry was “inactive”.

In the case of PSSFASP, the amyloid nucleation score entry is “inactive”.

As to PSSKFVGGIS, the amyloid nucleation score result was “inactive”.

As to PTGFLLPDAGWKIYTGSLDV, the amyloid nucleation score result was “inactive”.

On to PTGMPYNLTWFFWHATMPLL, for which the amyloid nucleation score is -0.255 ± 0.33.

Consider PTIKDLDTSIFGYLLGSVGD, for which the amyloid nucleation score entry is “inactive”.

Take PTKMCCLFTVIF: the amyloid nucleation score came to 2.13 ± 0.069.

Regarding PTPMNKKRHYHVDVASPFSL, the amyloid nucleation score entry was “inactive”.

Turning to PTTMVPQPRPYSLRRTLAY, the amyloid nucleation score result was “inactive”.

For the substance PVALLTD, the amyloid nucleation score result was “inactive”.

PVAVLDG gave an amyloid nucleation score of 0.654 ± 0.18.

Take PVDIDPLGSFVD: the amyloid nucleation score entry is “inactive”.

PVLARYL: the amyloid nucleation score result is “inactive”.

Regarding PVLQIIRLADRLWLDIG, the amyloid nucleation score entry was “inactive”.

Regarding PVLSDNYLTDFAFCYQYYMS, the amyloid nucleation score entry is “inactive”.

PVNFFKKFMSAMEVRYHRTK came in with an amyloid nucleation score of -0.046 ± 0.38.

Consider PVNYVYLTRFH, for which the amyloid nucleation score entry was “inactive”.

Consider PVQPTEARNR, for which the amyloid nucleation score entry was “inactive”.

With PVYCDCSYVREGVTITITIH, the amyloid nucleation score entry was “inactive”.

With PWFNFECL, the amyloid nucleation score entry was “inactive”.

Take PWLLVIIVLFGLYCRM: the amyloid nucleation score result was “inactive”.

Regarding PWLSVSRVVVGRSLDGNNCP, the amyloid nucleation score result is “inactive”.

PWPNVLLCDNDRLSFRYRSF returned an amyloid nucleation score of 0.972 ± 0.1.

Turning to PWSCISLFNFFGITPCWTLS, the amyloid nucleation score was 0.491 ± 0.67.

Take PWSHSS: the amyloid nucleation score entry is “inactive”.

Take PWSLWRTVKSPRKGGEQPRS: the amyloid nucleation score was -0.317 ± 1.1.

Regarding PYETGRKCNA, the amyloid nucleation score entry is “inactive”.

As for PYHGSSMLKIRVRGD, the amyloid nucleation score result is “inactive”.

For the substance PYKTWTINVLLWNLSCTFLN, the amyloid nucleation score amounted to 1.49 ± 0.096.

Consider PYLAGWRSLIPFNTSLCSGC, for which the amyloid nucleation score result was “inactive”.

Take PYNVSLFMLRMVSIFFVQHL: the amyloid nucleation score result is “inactive”.

Turning to PYSIVSGPRIFYGCYHSFI, the amyloid nucleation score entry is “inactive”.

Consider PYYNRGFCGYGFSQVMEVL, for which the amyloid nucleation score entry is “inactive”.

Consider QAFDFTHHPFHDRSWNGHWS, for which the amyloid nucleation score entry is “inactive”.

In turn, QARRSIYSISECGGGI showed an amyloid nucleation score of 0.234 ± 0.33.

As to QDFRLLSALRF, the amyloid nucleation score result is “inactive”.

QEVAMRAISLSLPARWSVPC: the amyloid nucleation score entry was “inactive”.
